Where no end group is shown, it is not given here.
Biological target: bovine insulin (bovine, UniProt P01317 85-105; P01317 25-54)
Experiment: ITC

Sequence of bovine insulin (P01317 85-105, chain 1 of 2): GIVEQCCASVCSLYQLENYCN
Sequence of bovine insulin (P01317 25-54, chain 2 of 2): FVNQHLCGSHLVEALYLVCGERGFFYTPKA

| stoichiometry N [peptides per insulin] | binding result | Binder |
| --- | --- | --- |
| 4 | – | Ac-DITTRYNGKVWWR (designed binder) [B2T_TT (N-DITTRYNGKVWWR-C), de novo designed 13-mer beta-hairpin peptide] |
| – | binds | Ac-DIFFRYNGKVWWR (designed binder) [B2T_FF (N-DIFF-RYNGKVWWR-C), de novo designed 13-mer beta-hairpin peptide] |
| – | binds | Ac-KVYYRYNGKVWWR (designed binder) [B2T_KV (N-KVYY-RYNGKVWWR-C), de novo designed 13-mer beta-hairpin peptide] |
